Patent US20090214574A1

Legend:
[1] = molecular target: native CD16A on human peripheral blood NK cells (human) (UniProt P08637); assay: cell-based or functional assay
CD16B-Fc^NA1 (human) [2] = molecular target: CD16B-Fc^NA1 (human) (UniProt O75015); assay: SPR, BIAcore 2000, antigen immobilized
CD16B-Fc^NA2 (human) [3] = molecular target: CD16B-Fc^NA2 (human) (UniProt O75015); assay: SPR, BIAcore 2000, antigen immobilized
CD16B-Fc^SH (human) [4] = molecular target: CD16B-Fc^SH (human) (UniProt O75015); assay: SPR, BIAcore 2000, antigen immobilized
[5] = molecular target: human CD16A-Fc^48R/158F fusion protein (human) (UniProt P08637); assay: SPR, BIAcore 2000, antigen immobilized
[6] = molecular target: human CD16A-Fc^48R/158V fusion protein (human) (UniProt P08637); assay: SPR, BIAcore 2000, antigen immobilized
CD16B-Fc^NA1 (human) [7] = molecular target: CD16B-Fc^NA1 (human) (UniProt O75015); assay: SPR, BIAcore 2000, antigen immobilized, koff/kon
CD16B-Fc^NA2 (human) [8] = molecular target: CD16B-Fc^NA2 (human) (UniProt O75015); assay: SPR, BIAcore 2000, antigen immobilized, koff/kon
CD16B-Fc^SH (human) [9] = molecular target: CD16B-Fc^SH (human) (UniProt O75015); assay: SPR, BIAcore 2000, antigen immobilized, koff/kon
[10] = molecular target: human CD16A-Fc^48R/158F fusion protein (human) (UniProt P08637); assay: SPR, BIAcore 2000, antigen immobilized, koff/kon
[11] = molecular target: human CD16A-Fc^48R/158V fusion protein (human) (UniProt P08637); assay: SPR, BIAcore 2000, antigen immobilized, koff/kon
[12] = molecular target: human CD16A-Fc^48R/158V fusion protein (human) (UniProt P08637); assay: SPR, BIAcore 2000, CD16A-Fc immobilized on CM5, koff/kon
[13] = molecular target: human CD16A-Fc^48R/158V fusion protein (human) (UniProt P08637); assay: SPR, BIAcore 2000, CD16A-Fc immobilized on CM5, 1:1 Langmuir

CD16B-Fc^SH (human), sequence (O75015 17-200 N65S/A78D): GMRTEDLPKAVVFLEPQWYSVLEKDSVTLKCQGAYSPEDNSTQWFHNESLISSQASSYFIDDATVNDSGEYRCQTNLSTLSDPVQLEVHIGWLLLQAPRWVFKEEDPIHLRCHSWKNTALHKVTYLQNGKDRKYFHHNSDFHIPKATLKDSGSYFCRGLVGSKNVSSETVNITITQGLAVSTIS
human CD16A-Fc^48R/158V fusion protein (human), sequence (P08637 17-208 L66R/F176V limits assumed): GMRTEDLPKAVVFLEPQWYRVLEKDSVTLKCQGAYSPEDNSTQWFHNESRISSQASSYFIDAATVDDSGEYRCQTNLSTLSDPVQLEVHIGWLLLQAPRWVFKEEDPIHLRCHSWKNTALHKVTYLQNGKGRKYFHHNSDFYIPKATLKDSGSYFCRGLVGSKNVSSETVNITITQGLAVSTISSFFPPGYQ
CD16B-Fc^NA2 (human), sequence (O75015 17-200 N65S): as the sequence (O75015 17-200 N65S/A78D) above, with D62A counted along it
human CD16A-Fc^48R/158F fusion protein (human), sequence (P08637 17-208): as the sequence (P08637 17-208 L66R/F176V limits assumed) above, with R50L, V160F counted along it
CD16B-Fc^NA1 (human), sequence (O75015 other isoform, or with tags, fused parts or gaps): as the sequence (O75015 17-200 N65S/A78D) above, with S20R, S49N, D62A, N66D, I90V counted along it
native CD16A on human peripheral blood NK cells (human), sequence (P08637 17-254): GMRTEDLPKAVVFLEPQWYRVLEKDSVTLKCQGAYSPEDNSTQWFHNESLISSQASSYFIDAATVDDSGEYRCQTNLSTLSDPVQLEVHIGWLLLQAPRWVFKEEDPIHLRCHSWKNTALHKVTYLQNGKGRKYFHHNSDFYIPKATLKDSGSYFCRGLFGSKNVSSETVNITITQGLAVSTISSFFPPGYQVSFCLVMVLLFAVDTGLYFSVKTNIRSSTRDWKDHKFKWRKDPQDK

## anti-CD16 murine monoclonal antibody A9
[1]
  lysis of P815 targets by NK cells (calcein release), 1 µg/mL antibody: 65%
CD16B-Fc^NA1 (human) [2]
  koff: 0.000487 s⁻¹
  kon: 77200 M⁻¹ s⁻¹
CD16B-Fc^NA2 (human) [3]
  koff: 0.000478 s⁻¹
  kon: 75700 M⁻¹ s⁻¹
CD16B-Fc^SH (human) [4]
  koff: 0.000528 s⁻¹
  kon: 77900 M⁻¹ s⁻¹
[5]
  koff: 0.00038 s⁻¹
  kon: 99400 M⁻¹ s⁻¹
[6]
  koff: 0.000406 s⁻¹
  kon: 78600 M⁻¹ s⁻¹
CD16B-Fc^NA1 (human) [7]
  Kd: 8.91 nM
CD16B-Fc^NA2 (human) [8]
  Kd: 9.63 nM
CD16B-Fc^SH (human) [9]
  Kd: 11.4 nM
[10]
  Kd: 3.82 nM
[11]
  Kd: 5.17 nM
[12]
  Kd: 1.75 nM
[13]
  koff: 0.000177 s⁻¹
  kon: 101000 M⁻¹ s⁻¹
